Data published in patent publication US20220106580A1.

Key:
asialofetuin (ASF) [1] = target: asialofetuin (ASF) (UniProt P12763); experiment: cell-based or functional assay
asialofetuin (ASF) [2] = target: asialofetuin (ASF) (UniProt P12763); experiment: saturation binding of GFP fluorescence to ASF adsorbed onto plastic, [GFP]=0-10 µM

UniProt P12763, sequence (P12763 19-359 limits assumed): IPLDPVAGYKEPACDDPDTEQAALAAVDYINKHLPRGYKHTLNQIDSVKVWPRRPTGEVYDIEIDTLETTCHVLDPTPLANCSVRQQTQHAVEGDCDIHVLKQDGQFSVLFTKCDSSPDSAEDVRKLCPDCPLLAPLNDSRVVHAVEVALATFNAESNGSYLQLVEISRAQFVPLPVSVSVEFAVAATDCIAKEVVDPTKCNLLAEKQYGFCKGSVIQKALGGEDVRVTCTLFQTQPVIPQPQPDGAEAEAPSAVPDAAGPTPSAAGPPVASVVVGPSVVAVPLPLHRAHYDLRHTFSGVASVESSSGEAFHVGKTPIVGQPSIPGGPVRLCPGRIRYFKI

Row | WT-G3 concentration at which insoluble aggregates with 7 uM ASF are detected at 420 nm (asialofetuin (ASF) [1]) [µM] | absorbance of 10 uM WT-G3 plus 7 uM ASF in PBS (asialofetuin (ASF) [1]) [absorbance] | concentration approaching saturation (asialofetuin (ASF) [2]) [µM] | Substance
1 | > 2.5 | 0.4 | – | wild-type galectin-3 (WT-G3) (from UniProt P17931 2-250)
2 | – | – | 2 | GFP-TT-G3 (superfolder green fluorescent protein - TriggerTrimer coiled-coil - human galectin-3; trimeric nanoassembly)
